In assay [1] the target is T1, EBV LMP2 (latent membrane protein 2) peptide on HLA-A*02:01 (human).
T1 peptide: LLWTLVVLL
Put plainly: cytokine release.

Assay [2] concerns the target T1, EBV LMP2 (latent membrane protein 2) …. Put plainly: killing.

B1: L203 TCR (TCR, V domains shown)
Valpha: DQQVKQNSPSLSVQEGRISILNCDYTNSMFDYFLWYKKYPAEGPTFLISISSIKDKNEDGRFTVFLNKSAKHLSLHIVPSQPGDSAVYFCAAKLPQAAGNKLTFGGGTRVLVKP
Vbeta: MVIQNPRYQVTQFGKPVTLSCSQTLNHNVMYWYQQKSSQAPKLLFHYYDKDFNNEADTPDNFQSRRPNTSFCFLDIRSPGLGDAAMYLCATSSSIAGDTRNNEQFFGPGTRLTVL
For B1, the binding result in assay [1] was “recognises”.

B2: L202 TCR (TCR, V domains shown)
Valpha: EDVEQSLFLSVREGDSSVINCTYTDSSSTYLYWYKQEPGAGLQLLTYIFSNMDMKQDQRLTVLLNKKDKHLSLRIADTQTGDSAIYFCAESIPSGYNKLIFGAGTRLAVHP
Vbeta: GVAQSPRYKIIEKRQSVAFWCNPISGHATLYWYQQILGQGPKLLIQFQNNGVVDDSQLPKDRFSAERLKGVDSTLKIQPAKLEDSAVYLCASSLGLAGEDTQYFGPGTRLTVL
In the case of B2, the binding result in assay [2] is listed as “recognises”.

B3: L201 TCR (TCR, V domains shown)
Valpha: DQQVKQNSPSLSVQEGRISILNCDYTNSMFDYFLWYKKYPAEGPTFLISISSIKDKNEDGRFTVFLNKSAKHLSLHIVPSQPGDSAVYFCAAPPPSGNQFYFGTGTSLTVIP
Vbeta: DVKVTQSSRYLVKRTGEKVFLECVQDMDHENMFWYRQDPGLGLRLIYFSYDVKMKEKGDIPEGYSVSREKKERFSLILESASTNQTSMYLCASSTRLAGAQRDTQYFGPGTRLTVL
As to B3, the binding result in assay [2] was “recognises”.

These data come from patent US20210369776A1 (published 2021).
